What is called Kd is the concentration at which binding is half-saturated. High values mean weaker binding, low ones tighter binding. One may read the koff as a measure of how fast the partners let go of each other. A high value points to a short-lived complex. By kon is commonly meant the second-order rate constant of association. High values mean faster complex formation, low ones slower complex formation. Broadly, the IC50 is the midpoint of a concentration-inhibition curve. A higher IC50 goes with lower potency. Usually EC50 stands for the concentration at which the effect is half-maximal. A high value points to weaker potency.

This note sets out measurements from patent publication US20260139048A1 (NANJING LEGEND BIOTECH, published 2026).

Test [1] addresses T1, cynomolgus TIGIT expressed on CHO-K1 cells (cynomolgus, UniProt A0A7N9I9V4 89-312).
T1 construct: whole, on cells; also called cynomolgus TIGIT over-expressing cell line
Briefly: flow cytometry on TIGIT over-expressing CHO-K1 cells.

In test [2] the target is T2, His-tagged human TIGIT (human, UniProt Q495A1 22-141).
T2 construct: SPR analyte; also called human TIGIT protein; not shown: His tag
T2 sequence: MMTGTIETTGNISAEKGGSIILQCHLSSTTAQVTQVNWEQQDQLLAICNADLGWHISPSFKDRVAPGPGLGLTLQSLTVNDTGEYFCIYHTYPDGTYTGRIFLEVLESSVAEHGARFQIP
Description: SPR (Biacore T200), antibody captured, His-tagged TIGIT analyte. (In general: In SPR one partner is held on a chip, and binding of the other changes the refractive index at the surface.)

For test [3], the target named is T3, His-tagged cynomolgus TIGIT (cynomolgus, UniProt A0A7N9I9V4 89-209).
T3 construct: SPR analyte; also called cynomolgus TIGIT protein; not shown: His tag
Described as above.

Test [4] addresses T4, human TIGIT expressed on CHO-K1 cells (human, UniProt Q495A1 22-244).
T4 construct: whole, on cells; also called human TIGIT-CHO-K1 cells; human TIGIT over-expressing cell line
T4 sequence (looked up): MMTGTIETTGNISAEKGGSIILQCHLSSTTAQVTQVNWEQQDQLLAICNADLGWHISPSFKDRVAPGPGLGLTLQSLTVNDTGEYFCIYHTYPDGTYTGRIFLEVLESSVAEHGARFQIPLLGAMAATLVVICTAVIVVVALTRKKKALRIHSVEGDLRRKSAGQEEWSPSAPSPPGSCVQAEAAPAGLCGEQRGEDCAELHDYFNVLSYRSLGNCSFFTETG
Description: flow cytometry competition: biotinylated CD155-Fc on human TIGIT-CHO-K1 cells. On the technique in general: A flow cytometer gives signals particle by particle.

The target in test [5] is T5, TIGIT on TIGIT-over expressing NFAT-Luc/Jurkat effector cells (GenScript reporter cell line) (UniProt Q495A1 22-244, limits assumed).
T5 sequence (looked up): T4 sequence (looked up)
Briefly: cell-based or functional assay.

Test [6] addresses T4, human TIGIT expressed on CHO-K1 cells. Description: flow cytometry on CHO-K1 cells expressing human TIGIT.
In test [7] the target is T2, His-tagged human TIGIT. Description: SPR experiment 2, IgG from HEK293 supernatant captured.
Test [8] deals with T1, cynomolgus TIGIT expressed on CHO-K1 …. Briefly: flow cytometry on CHO-K1 cells expressing cynomolgus TIGIT.

T3 sequence (A0A7N9I9V4 entry or part of it): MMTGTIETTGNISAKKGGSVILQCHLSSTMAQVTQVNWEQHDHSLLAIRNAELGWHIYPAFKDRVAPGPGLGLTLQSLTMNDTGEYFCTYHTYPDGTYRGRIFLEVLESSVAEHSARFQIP
T1 sequence (A0A7N9I9V4 entry or part of it): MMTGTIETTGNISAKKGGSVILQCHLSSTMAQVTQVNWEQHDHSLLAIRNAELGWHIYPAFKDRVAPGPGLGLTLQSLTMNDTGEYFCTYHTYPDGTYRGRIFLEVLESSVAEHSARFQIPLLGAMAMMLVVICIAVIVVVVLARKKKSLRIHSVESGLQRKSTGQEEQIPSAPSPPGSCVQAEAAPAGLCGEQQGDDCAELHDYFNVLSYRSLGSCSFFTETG

B1: huTIGIT-6-4 (antibody, human IgG1, kappa, V domains shown)
VH: QVQLVQSGAEVKKPGASVKVSCKASGYTFTENAMHWVRQAPGQRLEWIGGINPNNAGTSYSQKFQGRATLTVDTSASTAYMELSSLRSEDTAVYYCTRSSYYRYDLDYWGQGTTVTVSS
VL: DIQMTQSPSSLSASVGDRVTITCQASQDIKTALAWYQQKPGKAPKLLIYSASYRYTGVPSRFSGSGSGTDFTFTISSLQPEDIATYYCHQHYTTPWTFGGGTKLEIKR
notes: Humanized IgG; also called 6VH6.M7 + 6VL1.M1
Take B1: the “fold EC50 on cynomolgus against human TIGIT cell line” value in test [1] was greater than 10 fold. In addition, the Kd came to 0.58 nM in test [2], 260 nM in test [3] and 0.75 nM in test [7]. Also, the dissociation rate constant (koff) in test [2] amounted to 0.00019 s⁻¹; in test [3], 0.013 s⁻¹; in test [7], 0.00023 s⁻¹. In addition, the kon in test [2] was 330000 M⁻¹ s⁻¹; in test [3], 47000 M⁻¹ s⁻¹; in test [7], 300000 M⁻¹ s⁻¹. For the same molecule, the IC50 in test [4] came out at 1.17 nM. Besides, in test [5], the “Bottom (RLU)” value was 46800 RLU. The figures for the “EC50” value in test [5], in test [6] and in test [8] were 14.8 nM, 1.02 nM and 16.7 nM, respectively. Also, the “Top (RLU)” value in test [5] was found to be 128000 RLU.
